This assay addresses T1, PhyB(1-651)-AviTag-His6, biotinylated photosensory domain of A. thaliana phytochrome B (A. thaliana, UniProt P14713 1-651, biotin on the AviTag motif (~80% biotinylation); chromophore phycocyanobilin (PCB)).
T1 construct: photosensory domain of phytochrome B (PhyB), A. thaliana, amino acids 1-651; Expected mass 74 kDa; also called PhyB-AviTag; source: E. coli BL21 Star (DE3), plasmid pMH1105 with HO1 and PcyA, purified (Ni-NTA IMAC, desalting); not shown: AviTag, C-terminal, kept
T1 sequence (looked up): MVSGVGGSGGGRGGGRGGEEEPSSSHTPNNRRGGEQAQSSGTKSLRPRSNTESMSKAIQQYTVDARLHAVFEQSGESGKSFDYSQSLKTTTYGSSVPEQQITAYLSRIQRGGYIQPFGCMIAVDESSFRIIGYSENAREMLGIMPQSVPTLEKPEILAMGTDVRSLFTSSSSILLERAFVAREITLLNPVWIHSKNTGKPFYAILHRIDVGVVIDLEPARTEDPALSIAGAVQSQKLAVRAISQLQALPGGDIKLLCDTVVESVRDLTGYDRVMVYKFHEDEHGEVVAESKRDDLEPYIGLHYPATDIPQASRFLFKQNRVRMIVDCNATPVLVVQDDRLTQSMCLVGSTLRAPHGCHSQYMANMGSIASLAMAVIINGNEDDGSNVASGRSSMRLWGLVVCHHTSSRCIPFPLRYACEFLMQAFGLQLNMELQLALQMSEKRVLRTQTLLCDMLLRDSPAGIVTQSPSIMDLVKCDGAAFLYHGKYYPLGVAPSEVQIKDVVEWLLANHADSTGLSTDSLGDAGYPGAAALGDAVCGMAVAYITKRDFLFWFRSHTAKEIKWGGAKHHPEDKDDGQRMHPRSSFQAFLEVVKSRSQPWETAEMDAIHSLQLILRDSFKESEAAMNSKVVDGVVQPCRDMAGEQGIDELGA
Description: SEC; equimolar mixture of PhyB-AviTag (2.2 mg/ml) and GFP-PIF6 (1.2 mg/ml) in protein buffer (PBS, 0.5 mM TCEP), illuminated 3 min with 660 nm light (100 µmol/(m^2·s)), Superdex 200 Increase 10/300 GL run in the dark, 1 ml/min, absorbance at 280, 488 and 671 nm; never frozen and frozen-thawed proteins; compared with 740 nm illumination. Conditions: both partners purified. (Size exclusion chromatography separates by hydrodynamic size, large species first.)

B1: GFP-PIF6(1-100)-His6 (domain or fragment, A. thaliana, UniProt Q8L5W7 1-100, looked up)
chain: MMFLPTDYCCRLSDQEYMELVFENGQILAKGQRSNVSLHNQRTKSIMDLYEAEYNEDFMKSIIHGGGGAITNLGDTQVVPQSHVAAAHETNMLESNKHVD
notes: Expected mass 40 kDa; source: E. coli BL21 (DE3)pLysS, plasmid pHB111, purified as described for PhyB-AviTag (Ni-NTA IMAC, desalting); not shown: GFP, N-terminal, kept
For B1, the binding result is on record as “binds”.

The record behind these values is article PMC7842835, “Production, Purification and Characterization of Recombinant Biotinylated Phytochrome B for Extracellular Optogenetics” (Bio-protocol, 2020).
